{"source": "paper PMC5473857", "about": "“ZipA and FtsA* stabilize FtsZ-GDP miniring structures” (Scientific Reports, 2017)", "binders": {"B1": {"name": "FtsZ from E. coli (wild type, unlabeled) (natural protein, UniProt P0A9A6 1-383, looked up)", "chain": "MFEPMELTNDAVIKVIGVGGGGGNAVEHMVRERIEGVEFFAVNTDAQALRKTAVGQTIQIGSGITKGLGAGANPEVGRNAADEDRDALRAALEGADMVFIAAGMGGGTGTGAAPVVAEVAKDLGILTVAVVTKPFNFEGKKRMAFAEQGITELSKHVDSLITIPNDKLLKVLGRGISLLDAFGAANDVLKGAVQGIAELITRPGLMNVDFADVRTVMSEMGYAMMGSGVASGEDRAEEAAEMAISSPLLEDIDLSGARGVLVNITAGFDLRLDEFETVGNTIRAFASDNATVVIGTSLDPDMNDELRVTVVATGIGMDKRPEITLVTNKQVQQPVMDRYQQHGMAPLTQEQKPVAKVVNDNAPQTAKEPDYLDIPAFLRKQAD", "notes": "Cell division protein FtsZ, E. coli; assembles into polymers with GTP, GDP or GMPCPP; also called FtsZ-GTP; FtsZ-GDP; source: over-expressed from plasmid pET11b, purified (30% saturated ammonium sulfate, source Q 10/10 column)"}, "B2": {"name": "FtsZ T151C/Y222W labeled with ATTO-655-maleimide (natural protein, E. coli, UniProt P0A9A6 1-383, looked up)", "chain": "MFEPMELTNDAVIKVIGVGGGGGNAVEHMVRERIEGVEFFAVNTDAQALRKTAVGQTIQIGSGITKGLGAGANPEVGRNAADEDRDALRAALEGADMVFIAAGMGGGTGTGAAPVVAEVAKDLGILTVAVVTKPFNFEGKKRMAFAEQGICELSKHVDSLITIPNDKLLKVLGRGISLLDAFGAANDVLKGAVQGIAELITRPGLMNVDFADVRTVMSEMGWAMMGSGVASGEDRAEEAAEMAISSPLLEDIDLSGARGVLVNITAGFDLRLDEFETVGNTIRAFASDNATVVIGTSLDPDMNDELRVTVVATGIGMDKRPEITLVTNKQVQQPVMDRYQQHGMAPLTQEQKPVAKVVNDNAPQTAKEPDYLDIPAFLRKQAD", "modifications": "labeled with ATTO-655-maleimide", "notes": "Cell division protein FtsZ, E. coli, double mutant T151C/Y222W; Used diluted with a 9-fold excess of unlabeled wild-type FtsZ; also called FtsZY222W/T151C; labeled FtsZ; source: over-expressed from plasmid pET11b, purified (ammonium sulfate, source Q 10/10 column)"}, "B3": {"name": "PaFtsZ (FtsZ from Pseudomonas aeruginosa), full length (natural protein, UniProt P47204 1-394, looked up)", "chain": "MFELVDNIAQTAVIKVIGVGGGGGNAVNHMAKNNVEGVEFICANTDAQALKNIAARTVLQLGPGVTKGLGAGANPEVGRQAALEDRERISEVLEGADMVFITTGMGGGTGTGAAPIIAEVAKEMGILTVAVVTRPFPFEGRKRMQIADEGIRALAESVDSLITIPNEKLLTILGKDASLLAAFAKADDVLAGAVRGISDIIKRPGMINVDFADVKTVMSEMGMAMMGTGCASGPNRAREATEAAIRNPLLEDVNLQGARGILVNITAGPDLSLGEYSDVGNIIEQFASEHATVKVGTVIDADMRDELHVTVVATGLGARLEKPVKVVDNTVQGSAAQAAAPAQREQQSVNYRDLDRPTVMRNQSHGSAATAAKLNPQDDLDYLDIPAFLRRQAD", "notes": "Cell division protein FtsZ, Pseudomonas aeruginosa; also called His6-PaFtsZ; source: expressed from pET15b (NdeI/BamHI), purified (Talon column, thrombin, source Q 10/10 column)"}}, "key": {"[1]": {"target": "the molecule itself", "experiment": "negative-stain electron microscopy; FtsZ alone assembled with GTP; 5 uM FtsZ in HMK buffer pH 7.5 (50 mM HEPES, 100 mM KAc, 5 mM MgAc); also 5 and 10 uM FtsZ in MEK buffer pH 6.5 with 1 mM EDTA plus GTP, and 5 uM FtsZ in HMK with 0.5 mM GMPCPP; 2% uranyl acetate"}, "[2]": {"target": "B1", "experiment": "Trp quenching of ATTO fluorescence; 1 part ATTO-655-labeled FtsZ T151C/Y222W mixed with 9 parts unlabeled wild-type FtsZ; MMK buffer pH 6.5; 25 °C; excitation 650 nm, emission 680 nm; assembly kinetics", "details": "both partners purified"}, "[3]": {"target": "the molecule itself", "experiment": "negative-stain electron microscopy; FtsZ alone assembled with 0.5 mM GDP, HMK buffer pH 7.5; 5 uM (and 15 uM for E. coli FtsZ); 2% uranyl acetate"}}, "data": [{"binder": "B1", "values": [{"measurement": "binding result", "setting": "[1]", "value": "binds"}]}, {"binder": "B2", "values": [{"measurement": "binding result", "setting": "[2]", "value": "binds"}]}, {"binder": "B3", "values": [{"measurement": "binding result", "setting": "[3]", "value": "binds"}]}]}
